This is an account of results in US12589171B2, “177-Lu labeled peptide for site-specific uPAR-targeting” (priority 2012, dated 2026).

Each structure is given as a SMILES string. Residues, ends and D or L forms follow the SMILES beside them. A value given as a limit tells only on which side of the number the result lay.

What is called IC50 is the concentration that inhibits the measured activity by half. As a reminder, the tissue uptake is the share of the injected amount in each gram of the tissue.

One data set has as its target T1, human uPAR (Homo sapiens, UniProt Q03405).
T1 construct: made in house
The data set can be described thus: Ligand:uPAR interaction in vitro (binding affinity). The note with it: binding affinity towards human uPAR. The source says:
In table 2, the amino acids sequences of each peptid conjugate with the corresponding binding affinity towards human uPAR are shown. Residues in bold is important for the interaction with uPAR. A substitution of two of these important amino acids (Phe^3 and Trp^8) with Glu, results in a complete loss of affinity towards uPAR. […] Importantly, no reduction in affinity is caused by conjugation of DOTA chelator in the N-terminal, illustrated with identical IC50-value between the un-conjugated peptide AE105 and the conjugated form DOTA-AE105.

Data set [1] is described as follows: Toxicity in HT-29 therapy study (body weight, kidney H&E, deaths). Type of data set: in vivo, NMRI nude mice. The conditions noted are these: mouse, in vivo. The source says: Results are presented as the mean±SEM, n=6 animals/group. B, H&E staining of kidney sections representing kidney epithelia (top) and glomerulus (Bottom) from each treatment group. […] One pair of kidneys from one animal/group was stained. Scale bar=25 μm, 40× zoom.
Three days after tumor cell inoculation (study day 0), 18 nude mice bearing the human colorectal carcinoma xenograft HT-29 in each flank were randomly divided into three groups consisting of 6 animals each. All animals in each group were first baseline PET/CT scanned with ^18F-FLT (day 0) before being dosed with 20 MBq of either ^177Lu-DOTA-AE105, ^177Lu-DOTA-AE105mut or vehicle. Subsequently, PET/CT scans of all mice in each group were repeated with ^18F-FLT on study day 1, 3 and 6. Second treatment dose (20 MBq) was administrated on day 7, followed by CT-scan day 8, 10 and 14 to measure tumor volumes using manual ROI drawing on the reconstructed images. On day 14, all animals were euthanized and tumors and kidneys were collected and kept for further analysis at −80° C.
uPAR ELISA on resected HT-29 tumors was done as described previously in detail. All results were performed as duplicate measurements. Expression of uPAR in formalin fixed and paraffin embedded tumor tissue was evaluated by immunohistochemical staining (FIG. 7) as previously published. A general histopathology examination was performed on H&E stained kidney tissue (one pair of kidneys from one animal from each treatment group) and performed by a trained pathologist (ODL).

The nature of data set [2]: Biodistribution in Nude mice bearing HT-29 tumor xenograft (gamma-counter). The note with it: female, NMRI nude, mouse, in vivo, iv, total radioactivity. In kind it is in vivo, NMRI nude mice. As to the method:
Mice were sacrificed at 0.5, 1.0, 2.0, 4.0 and 24.0 h after injection, and a panel of organs, including blood drawn from the heart, was collected, weighed, and analyzed for radioactive content. Mean percent injected dose per gram (% ID/g)±SEM from three mice at each point is presented. A. Chemical structure of ^177Lu-DOTA-AE105. B(top) Biodistribution of ^177Lu-DOTA-AE105 in selected organs/tissues between 0.5 and 24.0 h. B (bottom). […] HT-29 colorectal cancer cells were obtained from the American Type Culture Collection (Manassas, VA, USA) and culture media was obtained from Invitrogen Co. (Carlsbad, CA, USA). The cell line was cultured in Mc.Coy's standard medium supplemented with 10% (v/v) fetal bovine serum and 1% (v/v) penicillin/Streptomycin at 37° C. and 5% CO2. Xenografts of human HT-29 colorectal cancer cells was established by injection of 200 μl cells (1×10^8 cells/ml) suspended in 100 μl Matrigel (BD Biosciences, San Jose, CA, USA), subcutaneously in the left and right flank of female NMRI nude mice obtained from Taconic, under anesthesia by Hypnorm/doricum (Study day −3). All animal experiments were performed under a protocol approved by the Animal Research Committee of the Danish Ministry of Justice. Biodistribution study was performed as previously described. In brief, Nude mice bearing HT-29 xenografts were injected in the tail-vein with 2-3 MBq of ^177Lu-DOTA-AE105 or ^177Lu-DOTA-AE105mut. All mice were euthanized after 0.5, 1, 2, 4 and 24 hr post tracer injection. Blood, tumor and major organs were collected (wet-weight) and the radioactivity was measured using a γ-counter from Perkin Elmer, MA, USA (N=4 mice/group).

T1 sequence (Q03405 23-305): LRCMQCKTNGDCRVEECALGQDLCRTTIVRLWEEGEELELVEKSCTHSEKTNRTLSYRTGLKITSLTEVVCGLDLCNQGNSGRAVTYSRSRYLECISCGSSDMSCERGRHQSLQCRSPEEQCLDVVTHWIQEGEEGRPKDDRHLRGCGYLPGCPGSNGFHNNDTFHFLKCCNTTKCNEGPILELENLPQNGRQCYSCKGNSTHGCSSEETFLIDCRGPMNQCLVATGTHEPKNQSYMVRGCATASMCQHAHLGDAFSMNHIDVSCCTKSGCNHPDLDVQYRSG

With `CC(C)C[C@H](NC(=O)[C@H](Cc1ccc(O)cc1)NC(=O)[C@@H](CCCNC(=N)N)NC(=O)[C@@H](CO)NC(=O)[C@H](Cc1ccccc1)NC(=O)[C@H](CC1CCCCC1)NC(=O)[C@@H](N)CC(=O)O)C(=O)N[C@@H](Cc1c[nH]c2ccccc12)C(=O)N[C@@H](CO)C(N)=O` [AE105, Asp^1-Cha^2-Phe^3-ser^4-arg^5-Tyr^6-Leu^7-Trp^8-Ser^9], on human uPAR, the IC50 was determined as 6.7 nM.
Compound `CC(C)C[C@H](NC(=O)[C@H](Cc1ccc(O)cc1)NC(=O)[C@@H](CCCNC(=N)N)NC(=O)[C@@H](CO)NC(=O)[C@H](CCC(=O)O)NC(=O)[C@H](CC1CCCCC1)NC(=O)[C@H](CC(=O)O)NC(=O)CN1CCN(CC(=O)O)CCN(CC(=O)O)CCN(CC(=O)O)CC1)C(=O)N[C@@H](CCC(=O)O)C(=O)N[C@@H](CO)C(N)=O` [DOTA-AE105mut, DOTA-Asp-Cha-Glu-(D)Ser-(D)Arg-Tyr-Leu-Glu-Ser-CONH2] (HELM PEPTIDE1{[O=C(O)CN1CCN(CC(=O)O)CCN(CC(=O)[*:2])CCN(CC(=O)O)CC1].D.[Cha].E.[dS].[dR].Y.L.E.S.[am]}$$$$V2.0) showed a half-maximal inhibitory concentration (IC50) on human uPAR greater than 10 nM.
As to `CC(C)C[C@H](NC(=O)[C@H](Cc1ccc(O)cc1)NC(=O)[C@@H](CCCNC(=N)N)NC(=O)[C@@H](CO)NC(=O)[C@H](CCC(=O)O)NC(=O)[C@H](CC1CCCCC1)NC(=O)[C@H](CC(=O)O)NC(=O)CN1CCN(CC(=O)O)CCN(CC(=O)O)CCN(CC(=O)O)CC1)C(=O)N[C@@H](CCC(=O)O)C(=O)N[C@@H](CO)C(N)=O` [^177Lu-DOTA-AE105mut, metal not drawn, reference compound] (HELM PEPTIDE1{[O=C(O)CN1CCN(CC(=O)O)CCN(CC(=O)[*:2])CCN(CC(=O)O)CC1].D.[Cha].E.[dS].[dR].Y.L.E.S.[am]}$$$$V2.0), the “animal body weight between treatment groups” value in data set [1] was “No significant differences in the mean body weights”. Also, the “kidney histopathology (H&E staining)” value in data set [1] is given as “no gross macroscopic morphological changes”. Also, the tissue uptake at 0.5 h came out at 0.959 %ID/g in data set [2] (% ID/g Blood); 0.39 %ID/g in data set [2] (% ID/g Bone); 0.081 %ID/g in data set [2] (% ID/g Brain); 0.278 %ID/g in data set [2] (% ID/g Heart); 0.2 %ID/g in data set [2] (% ID/g Intestine); 3.01 %ID/g in data set [2] (% ID/g Kidney). In addition, the tissue uptake at 0.5 h in data set [2] (% ID/g Liver) turned out to be 0.228 %ID/g; in data set [2] (% ID/g Muscle) it was 0.235 %ID/g; in data set [2] (% ID/g Spleen), 0.163 %ID/g; in data set [2] (% ID/g Tumor), 0.708 %ID/g.
